One test addresses T1, miR2-FL-WT-FLAG (mouse, UniProt Q80WQ6 1-827).
T1 construct: on MEF-DKO cells
T1 sequence: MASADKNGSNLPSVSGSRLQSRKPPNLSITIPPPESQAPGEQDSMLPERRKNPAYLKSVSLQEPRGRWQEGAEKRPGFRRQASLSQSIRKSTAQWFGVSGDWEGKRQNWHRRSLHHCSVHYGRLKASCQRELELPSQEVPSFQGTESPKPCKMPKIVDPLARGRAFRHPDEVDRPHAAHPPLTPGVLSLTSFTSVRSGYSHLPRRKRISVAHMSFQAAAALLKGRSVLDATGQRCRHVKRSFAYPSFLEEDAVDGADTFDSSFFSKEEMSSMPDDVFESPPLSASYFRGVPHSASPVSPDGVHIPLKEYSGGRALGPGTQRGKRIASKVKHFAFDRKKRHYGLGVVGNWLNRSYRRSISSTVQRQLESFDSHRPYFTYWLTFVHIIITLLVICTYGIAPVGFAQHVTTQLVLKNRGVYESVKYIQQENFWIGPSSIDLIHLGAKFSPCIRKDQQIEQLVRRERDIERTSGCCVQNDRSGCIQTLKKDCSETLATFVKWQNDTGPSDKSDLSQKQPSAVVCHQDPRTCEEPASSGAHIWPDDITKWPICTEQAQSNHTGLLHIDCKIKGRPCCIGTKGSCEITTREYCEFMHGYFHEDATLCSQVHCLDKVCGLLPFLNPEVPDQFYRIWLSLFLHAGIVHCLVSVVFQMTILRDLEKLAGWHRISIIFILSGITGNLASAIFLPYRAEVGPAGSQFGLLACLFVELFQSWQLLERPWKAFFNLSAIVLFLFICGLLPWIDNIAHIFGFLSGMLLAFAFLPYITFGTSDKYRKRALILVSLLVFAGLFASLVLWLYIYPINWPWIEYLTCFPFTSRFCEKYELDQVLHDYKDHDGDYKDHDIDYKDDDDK
The test can be described thus: FACS, MEF-DKO-miR2-FL-WT-FLAG cells. As to the method:
In brief, immortalized MEF-DKO-EV control cells, MEF-DKO-hiR2-FL-WT-FLAG cells and MEF-DKO-miR2-FL-WT-FLAG cells were harvested with 10 mM EDTA in PBS, washed and resuspended in FACS buffer (PBS, 3% FBS, 0.05% sodium azide), and seeded in Nunc U-bottom 96-well plates (Thermo Fisher Scientific, USA) at approximately 3×10⁵ cells per well. To pellet cells and remove supernatants, the plates were centrifuged at 1,500 rpm and 4° C. for 3 minutes. For primary staining, cells were resuspended in 100 μl per well of either FACS buffer alone (controls), mouse monoclonal anti-FLAG IgG (Sigma-Aldrich, USA) at 3 μg/ml FACS buffer or the antibodies of the invention also at 3 μg/ml FACS buffer and incubated on ice for 1 hour. Afterwards, plates were centrifuged at 1,500 rpm and 4° C. for 3 minutes and washed twice with 200 μl per well of FACS buffer. For secondary staining, cells were spun down and resuspended in 100 μl per well of PE-conjugated goat anti-mouse IgG F(ab′)2 detection fragment (Dianova, Germany) diluted 1:100 in FACS buffer. Protected from light, the cell suspensions were incubated on ice for 1 hour. Plates were then centrifuged at 1,500 rpm and 4° C. for 3 minutes and washed three times with 200 μl per well of FACS buffer. Finally, cells were resuspended in 150 μl per well of FACS buffer and analyzed using a BD Accuri™ C6 Plus flow cytometer (Becton Dickinson, Germany).

The target of a further test is T2, hiR2-FL-W526A-T7 (human, UniProt Q6PJF5 1-856).
T2 sequence: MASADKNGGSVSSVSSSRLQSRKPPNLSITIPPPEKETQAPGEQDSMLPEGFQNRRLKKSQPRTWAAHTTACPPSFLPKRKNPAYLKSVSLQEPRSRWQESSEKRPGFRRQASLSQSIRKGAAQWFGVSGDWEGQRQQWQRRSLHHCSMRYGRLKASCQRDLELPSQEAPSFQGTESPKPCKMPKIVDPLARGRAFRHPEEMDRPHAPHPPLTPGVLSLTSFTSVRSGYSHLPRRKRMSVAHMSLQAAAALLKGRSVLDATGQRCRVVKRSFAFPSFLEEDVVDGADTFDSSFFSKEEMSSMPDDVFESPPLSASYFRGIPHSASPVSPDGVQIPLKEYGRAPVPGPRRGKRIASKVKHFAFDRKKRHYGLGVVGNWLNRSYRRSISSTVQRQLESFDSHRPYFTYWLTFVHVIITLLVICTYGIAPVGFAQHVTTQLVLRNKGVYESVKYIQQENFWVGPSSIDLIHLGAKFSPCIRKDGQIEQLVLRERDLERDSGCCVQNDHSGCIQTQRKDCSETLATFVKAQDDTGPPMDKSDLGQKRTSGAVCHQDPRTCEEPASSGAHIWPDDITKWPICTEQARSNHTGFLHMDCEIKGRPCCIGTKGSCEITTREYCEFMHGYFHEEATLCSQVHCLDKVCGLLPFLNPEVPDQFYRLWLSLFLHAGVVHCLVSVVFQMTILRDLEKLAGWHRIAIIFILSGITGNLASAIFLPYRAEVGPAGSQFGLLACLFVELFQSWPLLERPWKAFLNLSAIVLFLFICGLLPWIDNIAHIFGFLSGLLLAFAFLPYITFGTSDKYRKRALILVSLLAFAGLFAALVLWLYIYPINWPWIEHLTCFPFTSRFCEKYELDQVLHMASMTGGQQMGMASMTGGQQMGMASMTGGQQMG
The test can be described thus: FACS on MEF-DKO cells expressing the variant, 3 µg/ml antibody. On the procedure:
To pellet cells and remove supernatants, the plates were centrifuged at 1,500 rpm and 4° C. for 3 minutes. For primary staining, cells were resuspended in 100 μl per well of either FACS buffer alone (controls) or the purified antibodies 3, 5, 16, 22, 34, 42, 43, 44, 48, and 50 of the invention at 3 μg/ml in FACS buffer and incubated on ice for 1 hour. Afterwards, plates were centrifuged at 1,500 rpm and 4° C. for 3 minutes and washed twice with 200 μl per well of FACS buffer. For secondary staining, cells were spun down and resuspended in 100 μl per well of PE-conjugated goat anti-mouse IgG F(ab′)2 detection fragment (Dianova, Germany) diluted 1:100 in FACS buffer. Protected from light, the cell suspensions were incubated on ice for 1 hour. Plates were then centrifuged at 1,500 rpm and 4° C. for 3 minutes and washed three times with 200 μl per well of FACS buffer. Finally, cells were resuspended in 150 μl per well of FACS buffer and analyzed using a BD Accuri™ C6 Plus flow cytometer (Becton Dickinson, Germany).

B1: antibody 43 (antibody, V domains shown)
VH: QVALKESGPGILQPSQTLSLTCSFSGFSLSTFGMGVGWIRQSSGKGLEWLANIWWDDDKYYNPALKSRLTISKDASKNQAFLKIANVDTADTATYYCARIGNYGSNYWYFDVWGTGTTVTVSS
VL: QIVLTQSPAIMSASPGERVTMTCSANSRISYMYWYQQKPGSSPRLLIYDTSNLASGVPVRFSGSGSGTSYSLTISRMEAEDAATYNCQQWSSYPLTFGAGTKLELK
notes: mouse IgG, kappa light chain; also called clone #43; purified antibody 43
As to B1, the binding result with miR2-FL-WT-FLAG is listed as “no binding (tested: 3 µg/ml)”. Moreover, the “loss of binding vs wild type” value with hiR2-FL-W526A-T7 was no less than 30%.

B2: antibody 44 (antibody, V domains shown)
VH: QVTLKESGPGILQPSQTLSLTCSFSGFSLSTFGMGVGWIRQPSEKGLEWLAHIWWDDDKYYNPALKSRLTISKDTSKNQIFLKITNVDTAETATYYCSRIGNYGSNYWYFDVWGTGTTVTVSS
VL: QIVLTQSPAVMSASPGEKVTMTCTASSSVYYMYWYQQTPGSSPRLLIYDTSNLASGVPVRFSGSGSGTSYSLTISRMEAEDAATYYCQQWNTYPLTFGAGTKLELK
notes: mouse IgG, kappa light chain; also called clone #44; purified antibody 44
As to B2, in the test with miR2-FL-WT-FLAG, the binding result is recorded as “no binding (tested: 3 µg/ml)”. The “loss of binding vs wild type” value in the test with hiR2-FL-W526A-T7 is no less than 30%.

B3: antibody 48 (antibody, V domains shown)
VH: QVQLQQSGTELVRPGTSVKVSCKASGYAFTNYLIEWVKQRPGQGLEWIGVINPGSGFTKYNEKFKGKATLTADKSSSTVYMHLSSLTSEDSAVYFCARGLYRAMDYWGQGTSVTVSS
VL: DIQMTQSPASQSASLGESVTITCLASQTIATWLAWYQQKPGKSPQLLIYGATTLADGVPSRFSGGGSGTKFSFKISSLQAEDFVSYYCQQLYSTPYTFGGGTKLEIK
notes: mouse IgG, kappa light chain; also called clone #48; purified antibody 48
Take B3: in the test with miR2-FL-WT-FLAG, the binding result is “no binding (tested: 3 µg/ml)”. Besides, the “loss of binding vs wild type” value in the test with hiR2-FL-W526A-T7 was no less than 30%.

B4: antibody 50 (antibody, V domains shown)
VH: QVQLQQSGAELVRPGASVKVSCKASGYAFSNYLIEWVKQRPGQGLEWIGVINPGSGFTKYNEKFKGKATLTADKSSSTAYMQLSSLTSEDSAVYFCARGLYRAMDYWGQGTSVTVSS
VL: DIQMTQSPASQSASLGESVTITCLASQTIGTWLAWYQQKPGKSPQLLIYAAASLADGVPSRFSGGGSGTKFSFKISSLQAEDFVNYYCQQIYSTPYTFGGGTKLEIK
notes: mouse IgG, kappa light chain; also called clone #50; purified antibody 50
B4: the binding result in the test with miR2-FL-WT-FLAG was “no binding (tested: 3 µg/ml)”. Besides, in the test with hiR2-FL-W526A-T7, the “loss of binding vs wild type” value is no less than 30%.

For the origin of these results see patent US20240287172A1 (SCIRHOM, published 2024).
